Here are results for 25 molecules from US12551573B2, “Compositions and methods for the targeting of PCSK9” (Scribe Therapeutics Inc., priority 2022, dated 2026).

B1: dCasX491: catalytically-dead CasX variant, SEQ ID NO: 4 (protein)
chain: QEIKRINKIRRRLVKDSNTKKAGKTGPMKTLLVRVMTPDLRERLENLRKKPENIPQPISNTSRANLNKLLTDYTEMKKAILHVYWEEFQKDPVGLMSRVAQPASKKIDQNKLKPEMDEKGNLTTAGFACSQCGQPLFVYKLEQVSEKGKAYTNYFGRCNVAEHEKLILLAQLKPEKDSDEAVTYSLGKFGQRALDFYSIHVTKESTHPVKPLAQIAGNRYASGPVGKALSDACMGTIASFLSKYQDIIIEHQKVVKGNQKRLESLRELAGKENLEYPSVTLPPQPHTKEGVDAYNEVIARVRMWVNLNLWQKLKLSRDDAKPLLRLKGFPSFPLVERQANEVDWWDMVCNVKKLINEKKEDGKVFWQNLAGYKRQEALRPYLSSEEDRKKGKKFARYQLGDLLLHLEKKHGEDWGKVYDEAWERIDKKVEGLSKHIKLEEERRSEDAQSKAALTDWLRAKASFVIEGLKEADKDEFCRCELKLQKWYGDLRGKPFAIEAENSILDISGFSKQYNCAFIWQKDGVKKLNLYLIINYFKGGKLRFKKIKPEAFEANRFYTVINKKSGEIVPMEVNFNFDDPNLIILPLAFGKRQGREFIWNDLLSLETGSLKLANGRVIEKTLYNRRTRQDEPALFVALTFERREVLDSSNIKPMNLIGVARGENIPAVIALTDPEGCPLSRFKDSLGNPTHILRIGESYKEKQRTIQAKKEVEQRRAGGYSRKYASKAKNLADDMVRNTARDLLYYAVTQDAMLIFANLSRGFGRQGKRTFMAERQYTRMEDWLTAKLAYEGLSKTYLSKTLAQYTSKTCSNCGFTITSADYDRVLEKLKKTATGWMTTINGKELKVEGQITYYNRYKRQNVVKDLSVELDRLSEESVNNDISSWTKGRSGEALSLLKKRFSHRPVQEKFVCLNCGFETHAAEQAALNIARSWLFLRSQEYKKYQTNKTTGNTDKRAFVETWQSFYRKKLKEVWKPAV
B2: DOMAIN_26749: repressor domain derived from the king cobra, Ophiophagus hannah; SEQ ID NO: 135 (protein)
chain: STPVTFEDVVVYFTAAEWVHLTNWQRDFYQAVMMETYELVASVAGDGVPMAEDEEGGVERPVWQYIPRGKRRRKTPQPRAD
modifications: Ophiophagus hannah
B3: DOMAIN_15251 (protein, listed as Callithrix jacchus)
chain: AAGRVTFEDVTVSFTKGEWQQLNPEQRELYRDVMLENYGNLVSVGLEETSKPSVILRLEEGKEPWSEEEVLRGGRPEKNWD
B4: DOMAIN_15269 (protein)
chain: YRGPVTFKDITVEFTREEWKLLDTAQRTLYREVMQENYSHLISVGYCANRPNAIFKLKQGKEPWILEVQFPRQKNPEDLCN
modifications: Ovis aries
B5: DOMAIN_16534 (protein, listed as Acinonyx jubatus)
chain: SHGPLSFEDVAVAFTKEEWQQLDPAQRTLYRDVMLENFSHVISLGHPVSKPDVISKLEQGEEPWIIKRDVSDWIYPERETR
B6: DOMAIN_16611 (protein, listed as Papio anubis)
chain: MAFEDVAVYFSQEEWGLLDTAQRALYRHVMLENFTLVTSLGLSTSRPYVVIQLERGEEPWVPSGKDMTLARNTYRRLNAGS
B7: DOMAIN_16738 (protein)
chain: MAFEDVAVYFSQEEWGLLDTTQRALYRHVMLENFTLVTSLGLSTSRPHVVIQLERGEEPWVPSGTDTTLSRTTYRRRNPGS
modifications: Pan troglodytes
B8: DOMAIN_16811 (protein, listed as Balaenoptera acutorostrata)
chain: PQASVSFKDVTVEFTQEEWWQMDSAQRTLYRDVMLENYSHLVSVGYCFTKPELIFMLEQGEDPWLLEKEFVNRSSPEESQP
B9: DOMAIN_16246 (protein, listed as Macaca mulatta)
chain: ASVTVTFDDVALYFSEQEWEILEKWQKQMYKQEMKTNYQTLDSLGYAFSKPDLITWMEQGRMLFISEQGCLDKTRRTTSPP
B10: DOMAIN_16050 (protein)
chain: PLESVTFEDVAVDFTQEEWSLLDKSQKNLFRNVMLETVTHLVSVGYQISKSDVIFQLEQGKELWPEAAGGLQGQSPDEVTP
modifications: Ovis aries
B11: DOMAIN_16115 (protein, listed as Bos taurus)
chain: VQGSVSFEDVAVGFSQEEWQILGPSQKALYWDVMLENYCNLVSVGYQAPTPNSLFQLEQGGPPWTVEGAALSSTCSGYQAT
B12: DOMAIN_15800 (protein, listed as Otolemur garnettii)
chain: MAFEDVAVYFSQEEWGLLDTAQRALYRHVMLENFTLVSSLGLSTSRPRVVVQLERGEEPWVPSRIDSTPARNAQGRRNPGS
B13: DOMAIN_16461 (protein)
chain: AQESVTFEDVAVNFTDREWQCLTYAQRHLYKDVMLENYGNMVSVGFPFPKPPLISHLERGVELCVQDPQDRESLSCSCLVS
modifications: Cebus imitator
B14: DOMAIN_16556 (protein, listed as Rhinopithecus roxellana)
chain: AQESVTFEDVAVNFTNREWQSLTYAQRHLYKHVMLENYRNMVSLGFPFPKPPLISHLERGVEPCVQDPQDKESLSCSYPVS
B15: DOMAIN_15356 (protein, listed as Acinonyx jubatus)
chain: TPDVVTFEDVAVCFSSGEWQCLTRAQRHLYTDVMLENYGNMLSAGLACPKPPLISHLEQGAVPCAEDLQDWGFLTCSFPVS
B16: DOMAIN_15406 (protein)
chain: MAFEDVAVYFSQEEWGLLDTAQRALYRRVMLDNFALVASLGLSTSRPRVVIQLERGEEPWVPSGKDMTLARNTYGRLNSGS
modifications: Pan troglodytes
B17: DOMAIN_15638 (protein, listed as Sapajus apella)
chain: MAFEDVAVYFSQEEWGLLDTAQRALYRRVMLDNFALVASLGLSTSRPRVVIQLERGEEPWVPSGTDMTMSRNTHRRRNSGF
B18: DOMAIN_15451 (protein)
chain: PLKLVTFEDVAVDFTQEEWSLLDKSQKNLFRNVMMETIHHLVSVGYQISKSDVISQLEQGKELWSKAAGGFQGQRPGEHQG
modifications: Bison bison
B19: DOMAIN_16694 (protein, listed as Callorhinus ursinus)
chain: SYGSFSFEDVTVGFTQEEWQHLGPAQRILYRDVMLENYSHLVSVGCCIPKPEVILKLEQGEQPWILEEESPSQSYPGLPTD
B20: DOMAIN_16566 (protein, listed as Odocoileus virginianus)
chain: HQESLTFKDVAVNFTQEEWHHVDAAQRRLYKDVMLENYSHLVSLGYQVSKPEVIFKLEQGEEPWIAEGEIQRPVCPDWKTR
B21: DOMAIN_15669 (protein, listed as Callorhinus ursinus)
chain: FQDSVTFEDVAVRFSSGEWQCLTRAQRHLYADVMLENYWNVISVGFAVPKPPLISHLEQGAEPCVQDLQDGGFLSCSFPVS
B22: DOMAIN_15279 (protein, listed as Callithrix jacchus)
chain: VNDLVTFKDVAIDFSQEEWQWMNPAQKRLYRSMMLENYQSLVSLGLCVSKPYVISLLEQGREPWEMTSEMRRSPFSDWESI
B23: DOMAIN_15863 (protein)
chain: CWGLLSFKDISMEFTWEEWQLLDSAQKYLYRDVILENYSHLVSLGYHGTKPDLIFKLEQGEEPWMINARVSRQSYPEGWKE
modifications: Vulpes vulpes
B24: DOMAIN_15839 (protein, listed as Callithrix jacchus)
chain: AQESMTFRDVAVFFSQDEWLHLDSAQRALYREVMLENYSTLVSLGIPFSMPKVIHQLQQGQDPCTVEGDVPSNTCLGFKTW
B25: DOMAIN_24125 (protein, listed as Saimiri boliviensis)
chain: MAFEDVAVYFSQEEWGLLDTAQRALYRRVMLDNFALVASLGLSTTRPRVVIQLERGEEPWVPSGTDMTMSRNAHRRRNPGS

One experiment deals with B2M locus. Nature of the experiment: B2M repression (HLA-negative cells by flow cytometry) in HEK293T cells transfected with LTRP plasmids. The conditions noted are these: HEK293T, 50 days post-transfection, spacer 7.37 (B2M). Format: cell-based, human. The method, then:
Each construct was tested in triplicate.
Each construct was tested in triplicate. […] Cells were harvested for repression analysis at day 5, day 12, day 21, and day 51 post-transfection.
Each construct was tested in triplicate. […] Cells were harvested for repression analysis at day 8, day 13, day 20, and day 27 post-transfection. […] In addition, cells were also harvested on day 5 post-transfection for gDNA extraction for bisulfite sequencing to assess off-target methylation at the non-targeted VEGFA locus, which was performed using similar methods as described in Example 13.
HEK293T cells were transfected as described in Example 14, except that the cells were transfected with 50 ng each of a plasmid encoding the LTRP construct and a plasmid encoding the gRNA. […] 72 of the 95 top repressor domains were assessed together in one experiment where B2M expression was measured at 7, 14, 19, and 26 days after transfection, and the data shown in Tables 57-60.
Turning to B1, the “% HLA-negative cells (mean)” value is given as 0.49%.

Staying with this experiment, now noted: HEK293T, 73 days post-transfection, spacer 7.37 (B2M).
Take B1: the “% HLA-negative cells (mean)” value is reported as 0.83%.

Staying with this experiment, now noted: HEK293T; LTRP5 without ADD, scaffold 316 spacer 7.165; days 6/7 to 26/27; vs LTRP5-ZIM3.
With B2, the “B2M repression by LTRP5 constructs with enhanced repressor domains” value was “most effective repressor domains”.

The next experiment relates to HBEGF locus.
Test: not given
Format: cell-based, human. The note with it: HEK293T; dCasX491 fusion, scaffold 174 spacer 34.28; 2 ng/ml diphtheria toxin for 48 hours.
On to B2, for which the “log 2 (fold change) of abundance before and after selection” value is on record as “highest log 2 (fold change)”.

Staying with this experiment, now noted: high-throughput screen of dXR repression of the HBEGF gene; abundance of each domain in the library before and after diphtheria toxin selection; HEK293T cells.
Consider B3, for which the “Log2 (fold change)” value is given as 2.2209.

With B4, the “Log2 (fold change)” value is on record as 2.0839.

Consider B5, for which the “Log2 (fold change)” value came out at 2.7531.

Take B6: the “Log2 (fold change)” value was found to be 3.4786.

Turning to B7, the “Log2 (fold change)” value amounted to 3.5957.

In the case of B8, the “Log2 (fold change)” value was found to be 3.5141.

For the molecule B9, the “Log2 (fold change)” value amounted to 2.3971.

B10: the “Log2 (fold change)” value came to 2.7105.

B11: the “Log2 (fold change)” value is reported as 2.9023.

As for B12, the “Log2 (fold change)” value turned out to be 3.4462.

For B13, the “Log2 (fold change)” value is 3.1155.

With B14, the “Log2 (fold change)” value was found to be 2.4217.

For the molecule B15, the “Log2 (fold change)” value worked out at 3.5466.

As for B16, the “Log2 (fold change)” value amounted to 3.4616.

With B17, the “Log2 (fold change)” value came out at 3.4277.

Turning to B18, the “Log2 (fold change)” value came out at 3.2905.

As to B19, the “Log2 (fold change)” value was found to be 2.0979.

Take B20: the “Log2 (fold change)” value was 3.3903.

As to B21, the “Log2 (fold change)” value is on record as 2.8865.

For B22, the “Log2 (fold change)” value came out at 3.8574.

Regarding B23, the “Log2 (fold change)” value was 2.7434.

For B24, the “Log2 (fold change)” value was found to be 2.3399.

The same experiment, now with this note: high-throughput screen of dXR repression of the HBEGF gene; change in abundance of each domain in the library before and after diphtheria toxin selection.
Regarding B2, the “Log2 (fold change)” value is given as 5.4323.

For the molecule B25, the “Log2 (fold change)” value worked out at 3.9692.
